Data as given in US9266940 (Novo Nordisk, dated 2016).
Numbered stars: 1 amine (or outer) side, 2 acyl side, 3 side chain; on linkers, the order of the positions; unused ones are H or OH. Square brackets hold non-standard residues; d marks the D form. Side chains are listed from the residue outwards. Ends that are not written are not given here. * marks the point of attachment. Decanoyl(10-(4-HOOC-PhO)) = O=C(O)c1ccc(OCCCCCCCCCC(=O)*)cc1; γGlu = O=C(O)[C@H](CCC(=O)[*:2])N[*:1]; C14 diacid = O=C(O)CCCCCCCCCCCCC(=O)*; AEEA = NCCOCCOCC(=O)O; Aib = CC(C)(N)C(=O)O

Target: T1, human GLP-1 receptor (human, UniProt P43220 24-463)
Experiment: cell-based or functional assay

Binder | EC50/pM (in vitro potency, cAMP formation, AlphaScreen) [pM]
H[Aib]EGTFTSDVSSYLEK([AEEA-AEEA-γGlu-C14 diacid])QAVRK([AEEA-AEEA-γGlu-C14 diacid])FIAHLVRGRG | 9
H[Aib]EGTFTSDVSSYLEGQAVRK([AEEA-AEEA-γGlu-C14 diacid])FIAHLVQGRK([AEEA-AEEA-γGlu-C14 diacid]) (also called 15) | 5
HAEGTFTSDVSSYLEGQAARK([AEEA-AEEA-γGlu-Decanoyl(10-(4-HOOC-PhO))])FIEWLVRGK([AEEA-AEEA-γGlu-Decanoyl(10-(4-HOOC-PhO))])GE | 96
HAEGTFTSDVSSYLEGQAVRK([AEEA-AEEA-γGlu-Decanoyl(10-(4-HOOC-PhO))])FIEWLVQGK([AEEA-AEEA-γGlu-Decanoyl(10-(4-HOOC-PhO))])GE (also called 13) | 79
HAEGTFTSDVSSYLEGQAAHK([AEEA-AEEA-γGlu-Decanoyl(10-(4-HOOC-PhO))])FIEWLVRGK([AEEA-AEEA-γGlu-Decanoyl(10-(4-HOOC-PhO))])GE (also called 10) | 214
HAEGTFTSDVSSYLEGQAVRK([AEEA-AEEA-γGlu-Decanoyl(10-(4-HOOC-PhO))])FIEWLVRGK([AEEA-AEEA-γGlu-Decanoyl(10-(4-HOOC-PhO))])GQ (also called 12) | 41
HAEGTFTSDVSSYLEEQAAHK([AEEA-AEEA-γGlu-Decanoyl(10-(4-HOOC-PhO))])FIEWLVRGK([AEEA-AEEA-γGlu-Decanoyl(10-(4-HOOC-PhO))])GE (also called 21) | 52
H[Aib]EGTK([AEEA-AEEA-γGlu-C14 diacid])TSDVSSYLEEQAARK([AEEA-AEEA-γGlu-C14 diacid])FIAHLVQGRG (also called 18) | 3020
HAEGTFTSDVSSYLEEQK([γGlu-AEEA-AEEA-C14 diacid])ARK([γGlu-AEEA-AEEA-C14 diacid])FIAHLVG (also called 22) | 1180
HAEGTFTSDVSSYLEEQK([AEEA-AEEA-γGlu-C14 diacid])VRK([AEEA-AEEA-γGlu-C14 diacid])FIAWLVG (also called 27) | 835
HAEGTFTSDVSSYLEEQK([γGlu-AEEA-AEEA-C14 diacid])VRK([γGlu-AEEA-AEEA-C14 diacid])FIAWLVG (also called 30) | 3000
HAEGTFTSDVSSYLEK([γGlu-AEEA-AEEA-C14 diacid])QAARK([γGlu-AEEA-AEEA-C14 diacid])FIAHLVG (also called 14) | 42

Target: T1, human GLP-1 receptor
Experiment: SPA displacement assay; IC50 at 2.0% HSA over IC50 at 0.001% HSA
Description: (§1) A shift in the binding affinity, $IC50$, is an indication that the peptide in question binds to albumin, and thereby a prediction of a potential protracted pharmacokinetic profile of the peptide in question in animal models.
(§2) 50 ul (micro liter) HSA ("high albumin" experiment containing 2% HSA), or buffer ("low albumin" experiment containing 0.001% HSA), was added to Optiplate, and 25 ul of test compounds were added. 5-10 ug membrane protein/sample was added (50 ul) corresponding to 0.1-0.2 mg protein/ml (to be preferably optimised for each membrane preparation). SPA-particles (Wheatgerm agglutinin SPA beads, Perkin Elmer, #RPNQ0001) were added in an amount of 0.5 mg/well (50 ul). […] The plates were sealed with PlateSealer and incubated for 120 minutes at 30° C. while shaking. The plates were centrifuged (1500 rpm, 10 min) and counted in Topcounter.

Binder | Ratio [(IC50/nM) high HSA]/[(IC50/nM) low HSA]
H[Aib]EGTFTSDVSSYLEK([AEEA-AEEA-γGlu-C14 diacid])QAVRK([AEEA-AEEA-γGlu-C14 diacid])FIAHLVRGRG | 174
H[Aib]EGTFTSDVSSYLEGQAVRK([AEEA-AEEA-γGlu-C14 diacid])FIAHLVQGRK([AEEA-AEEA-γGlu-C14 diacid]) (also called 15) | 155
HAEGTFTSDVSSYLEGQAARK([AEEA-AEEA-γGlu-Decanoyl(10-(4-HOOC-PhO))])FIEWLVRGK([AEEA-AEEA-γGlu-Decanoyl(10-(4-HOOC-PhO))])GE | 246
HAEGTFTSDVSSYLEGQAVRK([AEEA-AEEA-γGlu-Decanoyl(10-(4-HOOC-PhO))])FIEWLVQGK([AEEA-AEEA-γGlu-Decanoyl(10-(4-HOOC-PhO))])GE (also called 13) | 804
HAEGTFTSDVSSYLEGQAAHK([AEEA-AEEA-γGlu-Decanoyl(10-(4-HOOC-PhO))])FIEWLVRGK([AEEA-AEEA-γGlu-Decanoyl(10-(4-HOOC-PhO))])GE (also called 10) | 70
HAEGTFTSDVSSYLEGQAVRK([AEEA-AEEA-γGlu-Decanoyl(10-(4-HOOC-PhO))])FIEWLVRGK([AEEA-AEEA-γGlu-Decanoyl(10-(4-HOOC-PhO))])GQ (also called 12) | 453
HAEGTFTSDVSSYLEEQAAHK([AEEA-AEEA-γGlu-Decanoyl(10-(4-HOOC-PhO))])FIEWLVRGK([AEEA-AEEA-γGlu-Decanoyl(10-(4-HOOC-PhO))])GE (also called 21) | 163
H[Aib]EGTK([AEEA-AEEA-γGlu-C14 diacid])TSDVSSYLEEQAARK([AEEA-AEEA-γGlu-C14 diacid])FIAHLVQGRG (also called 18) | 2.1
HAEGTFTSDVSSYLEEQK([γGlu-AEEA-AEEA-C14 diacid])ARK([γGlu-AEEA-AEEA-C14 diacid])FIAHLVG (also called 22) | 87
HAEGTFTSDVSSYLEEQK([AEEA-AEEA-γGlu-C14 diacid])VRK([AEEA-AEEA-γGlu-C14 diacid])FIAWLVG (also called 27) | 97
HAEGTFTSDVSSYLEEQK([γGlu-AEEA-AEEA-C14 diacid])VRK([γGlu-AEEA-AEEA-C14 diacid])FIAWLVG (also called 30) | 134
HAEGTFTSDVSSYLEK([γGlu-AEEA-AEEA-C14 diacid])QAARK([γGlu-AEEA-AEEA-C14 diacid])FIAHLVG (also called 14) | 306

Target: T1, human GLP-1 receptor
Experiment: SPA, displacement of 125I-GLP-1(7-36)NH2 from hGLP-1R BHK membranes, high HSA (2.0%)
Description: as §1, §2

Binder | IC50 [nM]
H[Aib]EGTFTSDVSSYLEK([AEEA-AEEA-γGlu-C14 diacid])QAVRK([AEEA-AEEA-γGlu-C14 diacid])FIAHLVRGRG | 21
H[Aib]EGTFTSDVSSYLEGQAVRK([AEEA-AEEA-γGlu-C14 diacid])FIAHLVQGRK([AEEA-AEEA-γGlu-C14 diacid]) (also called 15) | 29
HAEGTFTSDVSSYLEGQAARK([AEEA-AEEA-γGlu-Decanoyl(10-(4-HOOC-PhO))])FIEWLVRGK([AEEA-AEEA-γGlu-Decanoyl(10-(4-HOOC-PhO))])GE | 123
HAEGTFTSDVSSYLEGQAVRK([AEEA-AEEA-γGlu-Decanoyl(10-(4-HOOC-PhO))])FIEWLVQGK([AEEA-AEEA-γGlu-Decanoyl(10-(4-HOOC-PhO))])GE (also called 13) | 201
HAEGTFTSDVSSYLEGQAAHK([AEEA-AEEA-γGlu-Decanoyl(10-(4-HOOC-PhO))])FIEWLVRGK([AEEA-AEEA-γGlu-Decanoyl(10-(4-HOOC-PhO))])GE (also called 10) | 452
HAEGTFTSDVSSYLEGQAVRK([AEEA-AEEA-γGlu-Decanoyl(10-(4-HOOC-PhO))])FIEWLVRGK([AEEA-AEEA-γGlu-Decanoyl(10-(4-HOOC-PhO))])GQ (also called 12) | 72
HAEGTFTSDVSSYLEEQAAHK([AEEA-AEEA-γGlu-Decanoyl(10-(4-HOOC-PhO))])FIEWLVRGK([AEEA-AEEA-γGlu-Decanoyl(10-(4-HOOC-PhO))])GE (also called 21) | 256
H[Aib]EGTK([AEEA-AEEA-γGlu-C14 diacid])TSDVSSYLEEQAARK([AEEA-AEEA-γGlu-C14 diacid])FIAHLVQGRG (also called 18) | 789
HAEGTFTSDVSSYLEEQK([γGlu-AEEA-AEEA-C14 diacid])ARK([γGlu-AEEA-AEEA-C14 diacid])FIAHLVG (also called 22) | 812
HAEGTFTSDVSSYLEEQK([AEEA-AEEA-γGlu-C14 diacid])VRK([AEEA-AEEA-γGlu-C14 diacid])FIAWLVG (also called 27) | > 1000
HAEGTFTSDVSSYLEEQK([γGlu-AEEA-AEEA-C14 diacid])VRK([γGlu-AEEA-AEEA-C14 diacid])FIAWLVG (also called 30) | > 1000
HAEGTFTSDVSSYLEK([γGlu-AEEA-AEEA-C14 diacid])QAARK([γGlu-AEEA-AEEA-C14 diacid])FIAHLVG (also called 14) | 443

Target: T1, human GLP-1 receptor
Experiment: SPA, displacement of 125I-GLP-1(7-36)NH2 from hGLP-1R BHK membranes, low HSA (0.001%)
Description: as §1, §2

Binder | IC50 [nM]
H[Aib]EGTFTSDVSSYLEK([AEEA-AEEA-γGlu-C14 diacid])QAVRK([AEEA-AEEA-γGlu-C14 diacid])FIAHLVRGRG | 0.12
H[Aib]EGTFTSDVSSYLEGQAVRK([AEEA-AEEA-γGlu-C14 diacid])FIAHLVQGRK([AEEA-AEEA-γGlu-C14 diacid]) (also called 15) | 0.19
HAEGTFTSDVSSYLEGQAARK([AEEA-AEEA-γGlu-Decanoyl(10-(4-HOOC-PhO))])FIEWLVRGK([AEEA-AEEA-γGlu-Decanoyl(10-(4-HOOC-PhO))])GE | 0.5
HAEGTFTSDVSSYLEGQAVRK([AEEA-AEEA-γGlu-Decanoyl(10-(4-HOOC-PhO))])FIEWLVQGK([AEEA-AEEA-γGlu-Decanoyl(10-(4-HOOC-PhO))])GE (also called 13) | 0.25
HAEGTFTSDVSSYLEGQAAHK([AEEA-AEEA-γGlu-Decanoyl(10-(4-HOOC-PhO))])FIEWLVRGK([AEEA-AEEA-γGlu-Decanoyl(10-(4-HOOC-PhO))])GE (also called 10) | 6.49
HAEGTFTSDVSSYLEGQAVRK([AEEA-AEEA-γGlu-Decanoyl(10-(4-HOOC-PhO))])FIEWLVRGK([AEEA-AEEA-γGlu-Decanoyl(10-(4-HOOC-PhO))])GQ (also called 12) | 0.16
HAEGTFTSDVSSYLEEQAAHK([AEEA-AEEA-γGlu-Decanoyl(10-(4-HOOC-PhO))])FIEWLVRGK([AEEA-AEEA-γGlu-Decanoyl(10-(4-HOOC-PhO))])GE (also called 21) | 1.57
H[Aib]EGTK([AEEA-AEEA-γGlu-C14 diacid])TSDVSSYLEEQAARK([AEEA-AEEA-γGlu-C14 diacid])FIAHLVQGRG (also called 18) | 373
HAEGTFTSDVSSYLEEQK([γGlu-AEEA-AEEA-C14 diacid])ARK([γGlu-AEEA-AEEA-C14 diacid])FIAHLVG (also called 22) | 9.31
HAEGTFTSDVSSYLEEQK([AEEA-AEEA-γGlu-C14 diacid])VRK([AEEA-AEEA-γGlu-C14 diacid])FIAWLVG (also called 27) | 10.3
HAEGTFTSDVSSYLEEQK([γGlu-AEEA-AEEA-C14 diacid])VRK([γGlu-AEEA-AEEA-C14 diacid])FIAWLVG (also called 30) | 7.44
HAEGTFTSDVSSYLEK([γGlu-AEEA-AEEA-C14 diacid])QAARK([γGlu-AEEA-AEEA-C14 diacid])FIAHLVG (also called 14) | 1.45
